For the test, the target named is T22-GFP-H6 protein nanoparticle (unlabeled) (horseshoe crab | not stated). Kind of test: SEC-MALS; Superdex 200 increase 10/300 GL; 166 mM NaHCO3, 333 mM NaCl, 0.1 mM NiCl2, pH 8; average molar mass of the self-assembled nanoparticles, in duplicate.

For “T22-GFP-H6 protein nanoparticle (unlabeled)”, the stoichiometry N – broadly, a count of units in the complex or per binding partner – is 10 copies.

Source of the values: publication PMC7690626.
